Literature values in paper PMC4740375.
Where two headings read alike, the source gives them in different places.

Columns and labels:
CD28 (Homo sapiens) [1] = biological target: CD28 (Homo sapiens) (UniProt P10747)
CD28 (Homo sapiens) [2] = biological target: CD28 (Homo sapiens) (UniProt P10747); remark: listed apart in the source

Kd (CD28 (Homo sapiens) [1])	Kd (CD28 (Homo sapiens) [2])	Substance
4 µM		CD80 (from UniProt P33681)
	20 µM	CD86 (from UniProt P42081)
